Measurements: patent US20240000840A1

Molecular target: CD20 on CD20+ human Burkitt's lymphoma cell lines (Ramos, Raji) (human) (UniProt P11836)
Test: cell-based or functional assay

Sequence of UniProt P11836 (P11836 whole entry): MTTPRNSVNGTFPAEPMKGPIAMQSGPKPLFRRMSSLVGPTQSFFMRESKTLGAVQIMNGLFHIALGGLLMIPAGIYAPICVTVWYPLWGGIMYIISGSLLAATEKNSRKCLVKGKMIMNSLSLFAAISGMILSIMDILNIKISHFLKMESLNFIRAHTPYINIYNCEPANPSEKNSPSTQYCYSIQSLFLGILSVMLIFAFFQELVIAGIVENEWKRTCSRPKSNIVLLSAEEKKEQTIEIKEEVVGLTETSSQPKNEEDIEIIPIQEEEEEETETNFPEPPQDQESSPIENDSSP

Rituximab (Mabthera or Rituxan) (antibody)
% of Raji alive, AB-101 + RTX, 24 h, batch 19AB101PN001: 13.8%
% of Raji alive, AB-101 + RTX, 24 h, batch 19AB101PN004: 21.1%
% of Raji alive, AB-101 + RTX, 24 h, batch 19AB101PN005: 34.1%
% of Raji alive, AB-101 + RTX, 24 h, batch 20AB101PG001: 25.8%
% of Raji alive, AB-101 + RTX, 24 h, batch 20AB101PG002: 14.3%
% of Raji alive, AB-101 + RTX, 24 h, batch 20AB101PN001: 16.8%
% of Raji alive, AB-101 + RTX, 24 h, batch 20AB101PN002: 26.6%
% of Raji alive, AB-101 + RTX, 24 h, batch 20AB101PN003: 28.4%
% of Raji alive, AB-101 + RTX, 24 h, batch 20AB101PN004: 34.3%
% of Raji alive, AB-101 + RTX, 48 h, batch 19AB101PN001: 6.6%
% of Raji alive, AB-101 + RTX, 48 h, batch 19AB101PN004: 8.9%
% of Raji alive, AB-101 + RTX, 48 h, batch 19AB101PN005: 18.6%
% of Raji alive, AB-101 + RTX, 48 h, batch 20AB101PG001: 11.7%
% of Raji alive, AB-101 + RTX, 48 h, batch 20AB101PG002: 5.5%
% of Raji alive, AB-101 + RTX, 48 h, batch 20AB101PN001: 9.2%
% of Raji alive, AB-101 + RTX, 48 h, batch 20AB101PN002: 12.5%
% of Raji alive, AB-101 + RTX, 48 h, batch 20AB101PN003: 13.3%
% of Raji alive, AB-101 + RTX, 48 h, batch 20AB101PN004: 18.6%
% of Raji alive, AB-101 + RTX, 72 h, batch 19AB101PN001: 4.5%
% of Raji alive, AB-101 + RTX, 72 h, batch 19AB101PN004: 9.4%
% of Raji alive, AB-101 + RTX, 72 h, batch 19AB101PN005: 11.5%
% of Raji alive, AB-101 + RTX, 72 h, batch 20AB101PG001: 9.6%
% of Raji alive, AB-101 + RTX, 72 h, batch 20AB101PG002: 3.6%
% of Raji alive, AB-101 + RTX, 72 h, batch 20AB101PN001: 7.5%
% of Raji alive, AB-101 + RTX, 72 h, batch 20AB101PN002: 13.9%
% of Raji alive, AB-101 + RTX, 72 h, batch 20AB101PN003: 12.3%
% of Raji alive, AB-101 + RTX, 72 h, batch 20AB101PN004: 18.3%
% of Ramos alive, AB-101 + RTX, 24 h, AVE of 9 batches (raw data table; differs from 47.6 in Table 26): 47.9%
% of Ramos alive, AB-101 + RTX, 24 h, batch 19AB101PN001: 29.5%
% of Ramos alive, AB-101 + RTX, 24 h, batch 19AB101PN004: 37.1%
% of Ramos alive, AB-101 + RTX, 24 h, batch 19AB101PN005: 59.7%
% of Ramos alive, AB-101 + RTX, 24 h, batch 20AB101PG001: 54.1%
% of Ramos alive, AB-101 + RTX, 24 h, batch 20AB101PG002: 22.1%
% of Ramos alive, AB-101 + RTX, 24 h, batch 20AB101PN001: 46.2%
% of Ramos alive, AB-101 + RTX, 24 h, batch 20AB101PN003: 57.7%
% of Ramos alive, AB-101 + RTX, 24 h, batch 20AB101PN004: 54.8%
% of Ramos alive, AB-101 + RTX, 48 h, batch 19AB101PN001: 12.1%
% of Ramos alive, AB-101 + RTX, 48 h, batch 19AB101PN004: 18.6%
% of Ramos alive, AB-101 + RTX, 48 h, batch 19AB101PN005: 38.1%
% of Ramos alive, AB-101 + RTX, 48 h, batch 20AB101PG001: 37.4%
% of Ramos alive, AB-101 + RTX, 48 h, batch 20AB101PG002: 7.7%
% of Ramos alive, AB-101 + RTX, 48 h, batch 20AB101PN001: 22.8%
% of Ramos alive, AB-101 + RTX, 48 h, batch 20AB101PN002: 53%
% of Ramos alive, AB-101 + RTX, 48 h, batch 20AB101PN003: 34.4%
% of Ramos alive, AB-101 + RTX, 48 h, batch 20AB101PN004: 29.2%
% of Ramos alive, AB-101 + RTX, 72 h, batch 19AB101PN001: 6.6%
% of Ramos alive, AB-101 + RTX, 72 h, batch 19AB101PN004: 11.4%
% of Ramos alive, AB-101 + RTX, 72 h, batch 19AB101PN005: 30.9%
% of Ramos alive, AB-101 + RTX, 72 h, batch 20AB101PG001: 23.5%
% of Ramos alive, AB-101 + RTX, 72 h, batch 20AB101PG002: 4.1%
% of Ramos alive, AB-101 + RTX, 72 h, batch 20AB101PN001: 11%
% of Ramos alive, AB-101 + RTX, 72 h, batch 20AB101PN002: 40.3%
% of Ramos alive, AB-101 + RTX, 72 h, batch 20AB101PN003: 21.8%
% of Ramos alive, AB-101 + RTX, 72 h, batch 20AB101PN004: 21.3%
Viable Raji cells (%), AB-101 + RTX, 24 hrs, mean of 9 AB-101 batches (long-term ADCC, IncuCyte): 23.9%
Viable Raji cells (%), AB-101 + RTX, 48 hrs, mean of 9 AB-101 batches (long-term ADCC, IncuCyte): 11.7%
Viable Raji cells (%), AB-101 + RTX, 72 hrs, mean of 9 AB-101 batches (long-term ADCC, IncuCyte): 10.1%
Viable Ramos cells (%), AB-101 + RTX, 24 hrs, mean of 9 AB-101 batches (long-term ADCC, IncuCyte): 47.6%
Viable Ramos cells (%), AB-101 + RTX, 48 hrs, mean of 9 AB-101 batches (long-term ADCC, IncuCyte): 28.1%
Viable Ramos cells (%), AB-101 + RTX, 72 hrs, mean of 9 AB-101 batches (long-term ADCC, IncuCyte): 19%
lysis of target cells (Raji), AB-101 combined with rituximab, end of the 72 hour co-culture, E:T 1:1 (live-cell analysis, Example 9): 90%
lysis of target cells (Ramos), AB-101 combined with rituximab, end of 72 hrs co-culture, E:T 1:1 (live-cell analysis, Example 9): 80%
